In PMC6769930, “Endoglin Protein Interactome Profiling Identifies TRIM21 and Galectin-3 as New Binding Partners” (Cells, 2019):

Tests used:
Assay in all cases: peptide or protein array; ProtoArray human protein Microarray v5.0 (over 9000 human proteins arrayed) probed with recombinant sEng in two replicates; detection with anti-endoglin mAb SN6h and HRP secondary antibody; hits with Z-score >=2.0 in both arrays
Settings in all cases: both partners purified
[1] = biological target: RNA polymerase-associated protein RTF1 homolog (RTF1) (human, UniProt Q92541 1-710)
[2] = biological target: T1, Lamin A/C (LMNA), transcript variant 2 (human, UniProt P02545-2 1-572)
T1 construct: source: bought: ProtoArray human protein Microarray v5.0 (Life Technologies), individually purified and arrayed
T1 sequence (looked up): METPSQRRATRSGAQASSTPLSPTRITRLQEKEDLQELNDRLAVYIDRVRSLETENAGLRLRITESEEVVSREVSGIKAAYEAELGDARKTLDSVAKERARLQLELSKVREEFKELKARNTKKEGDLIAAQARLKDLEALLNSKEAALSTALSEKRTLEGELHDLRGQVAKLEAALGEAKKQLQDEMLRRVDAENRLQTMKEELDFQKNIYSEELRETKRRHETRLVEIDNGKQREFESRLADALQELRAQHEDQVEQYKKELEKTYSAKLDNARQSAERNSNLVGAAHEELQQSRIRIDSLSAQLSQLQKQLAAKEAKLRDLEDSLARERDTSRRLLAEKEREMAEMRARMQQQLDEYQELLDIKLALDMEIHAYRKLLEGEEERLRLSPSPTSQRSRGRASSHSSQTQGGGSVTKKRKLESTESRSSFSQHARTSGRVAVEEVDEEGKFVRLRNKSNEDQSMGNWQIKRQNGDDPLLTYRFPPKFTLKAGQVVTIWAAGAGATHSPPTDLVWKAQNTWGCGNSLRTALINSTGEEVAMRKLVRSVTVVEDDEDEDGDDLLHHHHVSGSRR

[3] = biological target: T2, YTH domain family, member 2 (YTHDF2) (human, UniProt Q9Y5A9 1-579)
T2 construct: human YTHDF2; source: bought: ProtoArray human protein Microarray v5.0 (Life Technologies), individually purified and arrayed
T2 sequence (looked up): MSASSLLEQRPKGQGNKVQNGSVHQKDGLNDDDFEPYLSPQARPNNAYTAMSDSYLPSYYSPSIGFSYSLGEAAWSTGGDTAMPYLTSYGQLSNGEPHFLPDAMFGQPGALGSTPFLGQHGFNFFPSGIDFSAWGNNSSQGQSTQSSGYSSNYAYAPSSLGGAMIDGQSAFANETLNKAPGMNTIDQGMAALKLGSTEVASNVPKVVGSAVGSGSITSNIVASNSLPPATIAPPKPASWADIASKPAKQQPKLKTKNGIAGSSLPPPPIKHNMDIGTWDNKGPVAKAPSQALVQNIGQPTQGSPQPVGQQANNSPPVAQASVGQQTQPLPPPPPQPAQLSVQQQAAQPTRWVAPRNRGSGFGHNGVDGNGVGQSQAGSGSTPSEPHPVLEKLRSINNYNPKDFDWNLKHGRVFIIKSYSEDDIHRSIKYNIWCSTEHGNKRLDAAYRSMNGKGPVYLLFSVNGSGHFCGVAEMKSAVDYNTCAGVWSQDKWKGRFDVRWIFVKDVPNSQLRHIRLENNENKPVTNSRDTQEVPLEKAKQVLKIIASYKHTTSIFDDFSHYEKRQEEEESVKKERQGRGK

[4] = biological target: T3, Cell cycle associated protein 1 (CAPRIN1), transcript variant 1 (human, UniProt Q14444-1 1-709)
T3 construct: human CAPRIN1, transcript variant 1; source: bought: ProtoArray human protein Microarray v5.0 (Life Technologies), individually purified and arrayed
T3 sequence (looked up): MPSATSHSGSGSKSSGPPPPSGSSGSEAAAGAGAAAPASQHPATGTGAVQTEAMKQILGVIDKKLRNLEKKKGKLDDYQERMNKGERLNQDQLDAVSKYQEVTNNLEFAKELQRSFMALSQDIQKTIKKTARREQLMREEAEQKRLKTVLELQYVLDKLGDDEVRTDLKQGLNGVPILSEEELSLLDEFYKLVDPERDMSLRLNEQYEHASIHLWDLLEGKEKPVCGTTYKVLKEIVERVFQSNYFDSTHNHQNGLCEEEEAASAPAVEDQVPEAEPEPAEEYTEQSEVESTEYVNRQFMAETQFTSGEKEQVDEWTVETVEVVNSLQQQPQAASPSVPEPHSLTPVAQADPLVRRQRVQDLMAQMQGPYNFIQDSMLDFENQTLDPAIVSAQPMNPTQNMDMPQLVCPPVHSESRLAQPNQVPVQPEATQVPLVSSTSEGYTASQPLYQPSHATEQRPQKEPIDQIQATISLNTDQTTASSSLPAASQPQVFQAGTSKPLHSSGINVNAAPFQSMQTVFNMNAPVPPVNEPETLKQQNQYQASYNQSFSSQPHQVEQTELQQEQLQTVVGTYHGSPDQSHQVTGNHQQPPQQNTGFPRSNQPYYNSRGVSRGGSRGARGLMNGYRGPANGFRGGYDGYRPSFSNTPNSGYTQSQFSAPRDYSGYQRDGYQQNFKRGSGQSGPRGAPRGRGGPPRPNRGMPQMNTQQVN

Measured: binding result

B1: recombinant human soluble endoglin (sEng; Glu26-Gly586) (domain or fragment, UniProt P17813 26-586, looked up)
chain: ETVHCDLQPVGPERGEVTYTTSQVSKGCVAQAPNAILEVHVLFLEFPTGPSQLELTLQASKQNGTWPREVLLVLSVNSSVFLHLQALGIPLHLAYNSSLVTFQEPPGVNTTELPSFPKTQILEWAAERGPITSAAELNDPQSILLRLGQAQGSLSFCMLEASQDMGRTLEWRPRTPALVRGCHLEGVAGHKEAHILRVLPGHSAGPRTVTVKVELSCAPGDLDAVLILQGPPYVSWLIDANHNMQIWTTGEYSFKIFPEKNIRGFKLPDTPQGLLGEARMLNASIVASFVELPLASIVSLHASSCGGRLQTSPAPIQTTPPKDTCSPELLMSLIQTKCADDAMTLVLKKELVAHLKCTITGLTFWDPSCEAEDRGDKFVLRSAYSSCGMQVSASMISNEAVVNILSSSSPQRKKVHCLNMDSLSFQLGLYLSPHFLQASNTIEPGQQSFVQVRVSPSVSEFLLQLDSCHLDLGPEGGTVELIQGRAAKGNCVSLLSPSPEGDPRFSFLLHFYTVPIPKTGTLSCTVALRPKTGSQDQEVHRTVFMRLNIISPDLSGCTSKG
notes: human endoglin (CD105), extracellular domain, Glu26-Gly586; The same bought protein was the probe of the array and the analyte of the BLI; also called recombinant human endoglin/CD105 protein; source: bought: R&D Systems (1097-EN), purified recombinant
binds: all assays above
